{"source": "paper PMC10786891", "about": "“Massively parallel profiling of RNA-targeting CRISPR-Cas13d”"}
{"target": "T1, EsCas13d, nuclease-dead (Eubacterium siraeum, UniProt B0MS50, R295A;H300A;R849A;H854A)", "T1 sequence": "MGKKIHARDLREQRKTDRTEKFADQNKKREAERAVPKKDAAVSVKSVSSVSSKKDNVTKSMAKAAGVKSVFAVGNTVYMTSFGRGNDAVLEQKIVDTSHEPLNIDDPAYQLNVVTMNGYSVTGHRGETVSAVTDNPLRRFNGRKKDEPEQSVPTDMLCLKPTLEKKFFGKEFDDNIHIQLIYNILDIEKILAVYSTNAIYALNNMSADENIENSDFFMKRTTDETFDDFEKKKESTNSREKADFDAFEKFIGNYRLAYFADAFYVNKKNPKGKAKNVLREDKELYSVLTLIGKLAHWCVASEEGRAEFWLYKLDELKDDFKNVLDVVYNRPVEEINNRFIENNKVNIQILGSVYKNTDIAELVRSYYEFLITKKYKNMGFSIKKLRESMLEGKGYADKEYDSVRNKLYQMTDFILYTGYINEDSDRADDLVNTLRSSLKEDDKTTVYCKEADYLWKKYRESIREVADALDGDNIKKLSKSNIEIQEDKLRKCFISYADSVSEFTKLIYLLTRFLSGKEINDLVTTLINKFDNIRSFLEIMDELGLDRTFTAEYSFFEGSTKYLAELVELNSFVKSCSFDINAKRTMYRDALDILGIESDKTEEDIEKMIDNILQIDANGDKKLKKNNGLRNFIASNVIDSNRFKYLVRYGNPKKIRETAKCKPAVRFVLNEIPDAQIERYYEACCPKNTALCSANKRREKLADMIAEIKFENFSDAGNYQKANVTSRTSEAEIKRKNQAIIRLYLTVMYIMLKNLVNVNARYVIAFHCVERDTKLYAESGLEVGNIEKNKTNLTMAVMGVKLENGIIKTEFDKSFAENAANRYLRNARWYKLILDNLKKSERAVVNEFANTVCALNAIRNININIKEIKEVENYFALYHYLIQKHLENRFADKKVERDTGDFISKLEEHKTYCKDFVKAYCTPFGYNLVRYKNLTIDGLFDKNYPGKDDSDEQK", "assay": "crRNA (strand 1, pre-loaded); Mg2+; 40 mM Tris-HCl pH 7.5, 150 mM NaCl, 6 mM MgCl2, 1 mM DTT, 0.1% Tween-20, 0.2 mg/ml BSA; 25 C; 10 min per concentration, then washed", "settings": "tags: His6-TwinStrep-SUMO cleaved; N-terminal SNAP kept (SNAP-Surface 488); label: 3' end held by stalled T7 RNA polymerase", "units": {"Kd": "µM"}}
{"binder": "target 1 insC 3' of 17,insU 3' of 17 (mixed) RNA 1: CACCCGUGCAAAAAUGCAGGGGUCUAAAACUGAGCGGAUAACCUCUCUAUGG RNA 2: GGGAAUGGAUCCACAUCUACGAAUUCGUACCAUAGCUAGAGGUUAUCCGCUCACCGAGAUCGGAAGAGCACACGU", "Kd": "0.095 ± 0.014"}
{"binder": "target 1 insU 3' of 17,insA 3' of 13 (mixed) RNA 1: CACCCGUGCAAAAAUGCAGGGGUCUAAAACUGAGCGGAUAACCUCUCUAUGG RNA 2: GGGAAUGGAUCCACAUCUACGAAUUCGUACCAUAGUAGAGAGUUAUCCGCUCACCGAGAUCGGAAGAGCACACGU", "Kd": "0.0131 ± 0.0013"}
{"binder": "target 1 insC 3' of 10,insC 3' of 5 (mixed) RNA 1: CACCCGUGCAAAAAUGCAGGGGUCUAAAACUGAGCGGAUAACCUCUCUAUGG RNA 2: GGGAAUGGAUCCACAUCUACGAAUUCGUACCAUAGAGAGGUUCAUCCGCCUCACCGAGAUCGGAAGAGCACACGU", "Kd": "0.0111 ± 0.0011"}
{"binder": "target 1 U3A,A9G (mixed) RNA 1: CACCCGUGCAAAAAUGCAGGGGUCUAAAACUGAGCGGAUAACCUCUCUAUGG RNA 2: GGGAAUGGAUCCACAUCUACGAAUUCGUACCAUAGAGAGGUUGUCCGCACACCGAGAUCGGAAGAGCACACGU", "Kd": "0.00734 ± 0.00029"}
{"binder": "target 1 insG 3' of 16,insC 3' of 13 (mixed) RNA 1: CACCCGUGCAAAAAUGCAGGGGUCUAAAACUGAGCGGAUAACCUCUCUAUGG RNA 2: GGGAAUGGAUCCACAUCUACGAAUUCGUACCAUAGAGGAGCGUUAUCCGCUCACCGAGAUCGGAAGAGCACACGU", "Kd": "0.034 ± 0.004"}
{"binder": "target 1 A16C,G17A (mixed) RNA 1: CACCCGUGCAAAAAUGCAGGGGUCUAAAACUGAGCGGAUAACCUCUCUAUGG RNA 2: GGGAAUGGAUCCACAUCUACGAAUUCGUACCAUAACGAGGUUAUCCGCUCACCGAGAUCGGAAGAGCACACGU", "Kd": "0.052 ± 0.004"}
{"binder": "target 1 A9G,A20U (mixed) RNA 1: CACCCGUGCAAAAAUGCAGGGGUCUAAAACUGAGCGGAUAACCUCUCUAUGG RNA 2: GGGAAUGGAUCCACAUCUACGAAUUCGUACCUUAGAGAGGUUGUCCGCUCACCGAGAUCGGAAGAGCACACGU", "Kd": "0.048 ± 0.008"}
{"binder": "target 1 C2G,C6U (mixed) RNA 1: CACCCGUGCAAAAAUGCAGGGGUCUAAAACUGAGCGGAUAACCUCUCUAUGG RNA 2: GGGAAUGGAUCCACAUCUACGAAUUCGUACCAUAGAGAGGUUAUCUGCUGACCGAGAUCGGAAGAGCACACGU", "Kd": "0.00497 ± 0.00022"}
{"binder": "target 1 insG 3' of 22,insC 3' of 17 (mixed) RNA 1: CACCCGUGCAAAAAUGCAGGGGUCUAAAACUGAGCGGAUAACCUCUCUAUGG RNA 2: GGGAAUGGAUCCACAUCUACGAAUUCGUACGCAUAGCAGAGGUUAUCCGCUCACCGAGAUCGGAAGAGCACACGU", "Kd": "~0.07"}
{"binder": "target 1 insU 3' of 12,insA 3' of 6 (mixed) RNA 1: CACCCGUGCAAAAAUGCAGGGGUCUAAAACUGAGCGGAUAACCUCUCUAUGG RNA 2: GGGAAUGGAUCCACAUCUACGAAUUCGUACCAUAGAGAGGUUUAUCCAGCUCACCGAGAUCGGAAGAGCACACGU", "Kd": "0.0086 ± 0.0009"}
{"binder": "target 1 insC 3' of 20,insG 3' of 1 (mixed) RNA 1: CACCCGUGCAAAAAUGCAGGGGUCUAAAACUGAGCGGAUAACCUCUCUAUGG RNA 2: GGGAAUGGAUCCACAUCUACGAAUUCGUACCACUAGAGAGGUUAUCCGCUCAGCCGAGAUCGGAAGAGCACACGU", "Kd": "0.0093 ± 0.0004"}
{"binder": "target 1 C2G,U11G (mixed) RNA 1: CACCCGUGCAAAAAUGCAGGGGUCUAAAACUGAGCGGAUAACCUCUCUAUGG RNA 2: GGGAAUGGAUCCACAUCUACGAAUUCGUACCAUAGAGAGGGUAUCCGCUGACCGAGAUCGGAAGAGCACACGU", "Kd": "0.011 ± 0.0006"}
{"binder": "target 1 complement block 1-4 (mixed) RNA 1: CACCCGUGCAAAAAUGCAGGGGUCUAAAACUGAGCGGAUAACCUCUCUAUGG RNA 2: GGGAAUGGAUCCACAUCUACGAAUUCGUACCAUAGAGAGGUUAUCCGGAGUCCGAGAUCGGAAGAGCACACGU", "Kd": "0.00546 ± 0.00029"}
{"binder": "target 1 insG 3' of 16,insU 3' of 7 (mixed) RNA 1: CACCCGUGCAAAAAUGCAGGGGUCUAAAACUGAGCGGAUAACCUCUCUAUGG RNA 2: GGGAAUGGAUCCACAUCUACGAAUUCGUACCAUAGAGGAGGUUAUCUCGCUCACCGAGAUCGGAAGAGCACACGU", "Kd": "0.0228 ± 0.0018"}
{"binder": "target 1 C4A,G15U (mixed) RNA 1: CACCCGUGCAAAAAUGCAGGGGUCUAAAACUGAGCGGAUAACCUCUCUAUGG RNA 2: GGGAAUGGAUCCACAUCUACGAAUUCGUACCAUAGAUAGGUUAUCCGAUCACCGAGAUCGGAAGAGCACACGU", "Kd": "0.051 ± 0.019"}
{"binder": "target 1 U3A,G17A (mixed) RNA 1: CACCCGUGCAAAAAUGCAGGGGUCUAAAACUGAGCGGAUAACCUCUCUAUGG RNA 2: GGGAAUGGAUCCACAUCUACGAAUUCGUACCAUAAAGAGGUUAUCCGCACACCGAGAUCGGAAGAGCACACGU", "Kd": "0.046 ± 0.005"}
{"binder": "target 1 insA 3' of 21,insA 3' of 8 (mixed) RNA 1: CACCCGUGCAAAAAUGCAGGGGUCUAAAACUGAGCGGAUAACCUCUCUAUGG RNA 2: GGGAAUGGAUCCACAUCUACGAAUUCGUACCAAUAGAGAGGUUAUACCGCUCACCGAGAUCGGAAGAGCACACGU", "Kd": "0.0389 ± 0.0018"}
{"binder": "target 1 A16C,C22A (mixed) RNA 1: CACCCGUGCAAAAAUGCAGGGGUCUAAAACUGAGCGGAUAACCUCUCUAUGG RNA 2: GGGAAUGGAUCCACAUCUACGAAUUCGUAACAUAGCGAGGUUAUCCGCUCACCGAGAUCGGAAGAGCACACGU", "Kd": "0.071 ± 0.007"}
{"binder": "target 1 insU 3' of 20,insG 3' of 2 (mixed) RNA 1: CACCCGUGCAAAAAUGCAGGGGUCUAAAACUGAGCGGAUAACCUCUCUAUGG RNA 2: GGGAAUGGAUCCACAUCUACGAAUUCGUACCAUUAGAGAGGUUAUCCGCUCGACCGAGAUCGGAAGAGCACACGU", "Kd": "0.0117 ± 0.0005"}
{"binder": "target 1 C4A,A16G (mixed) RNA 1: CACCCGUGCAAAAAUGCAGGGGUCUAAAACUGAGCGGAUAACCUCUCUAUGG RNA 2: GGGAAUGGAUCCACAUCUACGAAUUCGUACCAUAGGGAGGUUAUCCGAUCACCGAGAUCGGAAGAGCACACGU", "Kd": "0.0172 ± 0.0015"}
{"binder": "target 1 U8G,U19A (mixed) RNA 1: CACCCGUGCAAAAAUGCAGGGGUCUAAAACUGAGCGGAUAACCUCUCUAUGG RNA 2: GGGAAUGGAUCCACAUCUACGAAUUCGUACCAAAGAGAGGUUAGCCGCUCACCGAGAUCGGAAGAGCACACGU", "Kd": "0.061 ± 0.013"}
{"binder": "target 1 insG 3' of 18,insU 3' of 7 (mixed) RNA 1: CACCCGUGCAAAAAUGCAGGGGUCUAAAACUGAGCGGAUAACCUCUCUAUGG RNA 2: GGGAAUGGAUCCACAUCUACGAAUUCGUACCAUAGGAGAGGUUAUCUCGCUCACCGAGAUCGGAAGAGCACACGU", "Kd": "0.067 ± 0.008"}
{"binder": "target 1 C2U,G5U (mixed) RNA 1: CACCCGUGCAAAAAUGCAGGGGUCUAAAACUGAGCGGAUAACCUCUCUAUGG RNA 2: GGGAAUGGAUCCACAUCUACGAAUUCGUACCAUAGAGAGGUUAUCCUCUUACCGAGAUCGGAAGAGCACACGU", "Kd": "0.0232 ± 0.001"}
{"binder": "target 1 U10G,C22A (mixed) RNA 1: CACCCGUGCAAAAAUGCAGGGGUCUAAAACUGAGCGGAUAACCUCUCUAUGG RNA 2: GGGAAUGGAUCCACAUCUACGAAUUCGUAACAUAGAGAGGUGAUCCGCUCACCGAGAUCGGAAGAGCACACGU", "Kd": "0.06 ± 0.014"}
{"binder": "target 1 insU 3' of 6,insA 3' of 5 (mixed) RNA 1: CACCCGUGCAAAAAUGCAGGGGUCUAAAACUGAGCGGAUAACCUCUCUAUGG RNA 2: GGGAAUGGAUCCACAUCUACGAAUUCGUACCAUAGAGAGGUUAUCCUGACUCACCGAGAUCGGAAGAGCACACGU", "Kd": "0.024 ± 0.002"}
{"binder": "target 1 insA 3' of 19,insC 3' of 3 (mixed) RNA 1: CACCCGUGCAAAAAUGCAGGGGUCUAAAACUGAGCGGAUAACCUCUCUAUGG RNA 2: GGGAAUGGAUCCACAUCUACGAAUUCGUACCAUAAGAGAGGUUAUCCGCUCCACCGAGAUCGGAAGAGCACACGU", "Kd": "0.0174 ± 0.0019"}
{"binder": "target 1 A9G,U11A (mixed) RNA 1: CACCCGUGCAAAAAUGCAGGGGUCUAAAACUGAGCGGAUAACCUCUCUAUGG RNA 2: GGGAAUGGAUCCACAUCUACGAAUUCGUACCAUAGAGAGGAUGUCCGCUCACCGAGAUCGGAAGAGCACACGU", "Kd": "0.0427 ± 0.0031"}
{"binder": "target 1 C6G,A16U (mixed) RNA 1: CACCCGUGCAAAAAUGCAGGGGUCUAAAACUGAGCGGAUAACCUCUCUAUGG RNA 2: GGGAAUGGAUCCACAUCUACGAAUUCGUACCAUAGUGAGGUUAUCGGCUCACCGAGAUCGGAAGAGCACACGU", "Kd": "0.0409 ± 0.0034"}
